Consider five molecules from patent US20180185504A1 (Regeneron, published 2018).

Residue numbers refer to the chain shown, from its start. Names may count otherwise.

T1: human PRLR on cells (endogenous on T47D, T47D#11, MCF7); introduced in HEK293/hPRLR/STAT5-Luc, 293/hPRLR, … (human, UniProt P16471 25-622)
T1 sequence: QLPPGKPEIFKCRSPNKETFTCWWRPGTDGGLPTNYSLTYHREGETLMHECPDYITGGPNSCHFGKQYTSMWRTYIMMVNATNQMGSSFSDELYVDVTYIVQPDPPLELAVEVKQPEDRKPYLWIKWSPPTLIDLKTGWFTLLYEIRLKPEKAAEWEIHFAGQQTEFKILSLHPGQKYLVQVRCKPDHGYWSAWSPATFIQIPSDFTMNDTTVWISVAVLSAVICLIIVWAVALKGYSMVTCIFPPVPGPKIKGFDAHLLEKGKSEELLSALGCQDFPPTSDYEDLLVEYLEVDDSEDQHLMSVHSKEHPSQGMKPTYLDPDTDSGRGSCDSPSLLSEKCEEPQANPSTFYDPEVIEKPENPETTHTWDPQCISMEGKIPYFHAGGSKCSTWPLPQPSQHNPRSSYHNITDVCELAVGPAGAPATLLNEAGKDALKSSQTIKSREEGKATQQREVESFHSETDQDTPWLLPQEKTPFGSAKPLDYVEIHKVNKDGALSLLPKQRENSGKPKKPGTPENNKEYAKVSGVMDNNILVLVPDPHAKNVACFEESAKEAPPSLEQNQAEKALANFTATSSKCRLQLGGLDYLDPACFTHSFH

T2: mfPRLR.mmh (soluble monomeric macaca fascicularis PRLR) (macaca fascicularis)
T2 construct: soluble monomeric PRLR protein; also called macaca fascicularis (mf) PRLR.mmh; monkey PRLR
T2 chain: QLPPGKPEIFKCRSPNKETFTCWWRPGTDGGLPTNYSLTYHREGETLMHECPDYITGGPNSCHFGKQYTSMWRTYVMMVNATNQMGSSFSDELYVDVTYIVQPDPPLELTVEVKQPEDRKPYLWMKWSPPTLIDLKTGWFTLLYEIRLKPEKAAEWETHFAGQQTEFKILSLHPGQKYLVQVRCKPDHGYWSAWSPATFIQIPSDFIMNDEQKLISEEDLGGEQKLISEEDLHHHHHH

T3: hPRLR.mFc (soluble dimeric human PRLR) (human)
T3 construct: dimeric PRLR construct
T3 chain: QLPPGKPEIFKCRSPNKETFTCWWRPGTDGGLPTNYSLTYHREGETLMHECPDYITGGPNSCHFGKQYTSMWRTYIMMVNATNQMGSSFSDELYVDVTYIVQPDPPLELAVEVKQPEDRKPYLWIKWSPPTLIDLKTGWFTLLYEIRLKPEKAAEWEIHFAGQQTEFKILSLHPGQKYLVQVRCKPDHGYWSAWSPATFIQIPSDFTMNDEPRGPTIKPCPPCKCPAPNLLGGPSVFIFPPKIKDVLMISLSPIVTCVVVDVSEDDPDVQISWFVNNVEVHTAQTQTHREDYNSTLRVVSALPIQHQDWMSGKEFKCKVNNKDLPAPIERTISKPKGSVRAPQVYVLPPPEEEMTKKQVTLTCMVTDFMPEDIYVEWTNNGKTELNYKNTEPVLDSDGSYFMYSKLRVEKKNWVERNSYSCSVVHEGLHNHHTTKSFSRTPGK

T4: hPRLR.mmh (soluble monomeric human PRLR) (human)
T4 construct: soluble monomeric PRLR protein
T4 chain: T2 chain with V76I, T110A, M125I, T158I, I207T

T5: mouse PRLR construct with an HA tag on HEK293/mPRLR cells (mouse, UniProt Q08501 20-608)
T5 construct: whole, on cells; stably transfected into HEK293
T5 sequence (looked up): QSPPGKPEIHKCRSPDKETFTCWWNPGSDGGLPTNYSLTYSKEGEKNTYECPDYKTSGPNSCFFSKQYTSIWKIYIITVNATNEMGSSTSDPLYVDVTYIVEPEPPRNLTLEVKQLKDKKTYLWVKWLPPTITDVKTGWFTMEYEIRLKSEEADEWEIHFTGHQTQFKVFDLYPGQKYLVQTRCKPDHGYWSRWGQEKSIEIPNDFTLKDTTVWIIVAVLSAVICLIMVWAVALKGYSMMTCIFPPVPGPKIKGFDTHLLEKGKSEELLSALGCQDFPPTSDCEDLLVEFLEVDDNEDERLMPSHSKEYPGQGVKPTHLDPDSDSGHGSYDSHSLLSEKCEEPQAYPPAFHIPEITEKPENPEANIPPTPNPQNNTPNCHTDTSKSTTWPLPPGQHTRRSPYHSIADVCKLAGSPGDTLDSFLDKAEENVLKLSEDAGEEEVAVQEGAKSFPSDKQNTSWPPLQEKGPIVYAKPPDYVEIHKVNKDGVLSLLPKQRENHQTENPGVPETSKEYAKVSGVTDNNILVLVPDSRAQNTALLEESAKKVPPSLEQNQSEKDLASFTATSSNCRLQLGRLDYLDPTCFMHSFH

B1: H1H6795P (antibody, human IgG1, V domains shown)
VH: QVQLVQSGAEVKKPGASVKVSCKASGYTFGTSGITWVRQAPGQGLEWMGWSSAYNGKTDYAQKFQDRVTMTTDTSTTTGYMEMRSLTSDDTAVYYCTTVVRRPFDFWGQGTLVTVSS
VL: DIQMTQSPSSLSASVGDRVTITCRASQDINNFLAWFQQKPGKAPKSLIYAASSLQSGVPSKFSGGGSGTDFALTISSLQPEDFATYYCQQYSSYPITFGQGTRLEIK
notes: human IgG1 Fc (H1H)
B2: H1H6790P (antibody, human IgG1, V domains shown)
VH: EVQLVESGGGLVQPGGSLRLSCAASGFTFSSYAMTWVRQAPGKGLEWVSAITGSVGNTYYADSVKGRFTISRDNSKNTLYLQMNSLGAEDTAEYYCAKGAGMTTNWYLDLWGRGTLVTVSS
VL: DIVMTQSPDSLAVSLGARATINCKSSQSVLYSSNNQNYLTWYQQKPGQPPKLLIKWASTRESGVPDRFSGSGSGTDFTLTISSLQAEDVAVYYCQQYASSPYTFGQGTKLEIK
notes: human IgG1 Fc (H1H)
B3: H1H6804P (antibody, human IgG1, V domains shown)
VH: QVTLKESGPVLVKPTQTLSLTCTVSGFSLSDAGMGVSWIRQPPGKALEWLAHIFSNDGKSYSTSLKSRLTISKDTSKRQVVLTMTNMDPVDTATYYCARIRTGTYSLYLDYWGQGTLVTVSS
VL: DIQMTQSPSSLSASVGDRVTITCRASQSINSYLNWYQQKPGKAPKLLLYFASSLQSGVPSRFSGSGSGTDFTLTISSLQPEDFASYYCQESYSTPWTFGQGTKVEIK
notes: human IgG1 Fc (H1H)
B4: H1H6807P (antibody, V domains shown)
VH: QVQLVESGGGVVQPGRSLRLSCAASGFTFSDYNMHWVRQAPGKGLEWVAVIWYDGSNKHYADSVKGRFTISRDNSKNTLYLQMNSLRAEDTAVYYCARDGFTIFGMVLDYWGQGTLVTVSS
VL: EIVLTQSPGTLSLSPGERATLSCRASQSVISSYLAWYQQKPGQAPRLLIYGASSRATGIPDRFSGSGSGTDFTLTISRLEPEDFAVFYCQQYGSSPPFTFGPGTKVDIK
notes: human IgG1 Fc (H1H)
B5: H1H6797P (antibody, human IgG1, V domains shown)
VH: EVQLVESGGGLVQPGGSLRLSCIVSGFTFSGSWMSWVRQLPGKGLEWVANIKEDGSDSYYVDSVEGRFTISRDNAKSSLYLQMNSLRVDDTAVYFCARARTVPLHYWGQGTLVTVSS
VL: DIQMTQSPSTLSASVGDRVTITCRASQSINIWLAWYQQKPGKAPKLLIYRASYLESGVPSSFAGGGSGTEFTLTISSLQPDDFGTYYCQHYNSYPFTFGQGTKLEIK
notes: human IgG1 Fc (H1H)

For the first experiment, the target named is T1, human PRLR on cells (endogenous on …). Nature of the experiment: cell-based or functional assay.
Consider B1, for which the “% Internalization relative to Control I (T47D cells, imaging)” value (from here on “% Internalization relative to Control I”) was 151%.

Consider B2, for which the “% Internalization relative to Control I” value stood at 147%.

Consider B3, for which the “% Internalization relative to Control I” value worked out at 139%.

In the case of B4, the “% Internalization relative to Control I” value came out at 147%.

On to B5, for which the “% Internalization relative to Control I” value is 145%.

The target of the next experiment is T2, mfPRLR.mmh (soluble monomeric macaca …). Nature of the experiment: SPR (Biacore), antibody capture, 37 C. The method, then:
(§1) Measurements were conducted on a T200 Biacore instrument. Kinetic association (kₐ) and dissociation (kd) rate constants were determined by processing and fitting the data to a 1:1 binding model using Scrubber 2.0 curve fitting software.
(SPR reads the build-up and loss of mass on a sensor chip optically.)
With B1, binding was characterised by a dissociation constant (Kd) of 6.16 nM; the “T 1/2” value came to 2 min; the koff (as a rule, the first-order rate constant of dissociation) is 0.00599 s⁻¹; the kon (in general, the rate constant with which the complex forms) was found to be 973000 M⁻¹ s⁻¹.

Consider B2, for which the Kd (commonly a measure of binding affinity in units of concentration) amounted to 5.22 nM, the “T 1/2” value is 4 min, the koff is 0.00321 s⁻¹ and the kon is 615000 M⁻¹ s⁻¹.

Consider B3, for which binding was put at a Kd of 9.35 nM, the “T 1/2” value turned out to be 3 min, the koff was found to be 0.00426 s⁻¹ and the kon was determined as 455000 M⁻¹ s⁻¹.

For the molecule B4, the Kd is 0.448 nM, the “T 1/2” value was 32 min, the off-rate (koff) worked out at 0.000359 s⁻¹ and the kon is 802000 M⁻¹ s⁻¹.

On to B5, for which the Kd was 9.9 nM, the “T 1/2” value was determined as 1 min, the koff stood at 0.00906 s⁻¹ and the kon amounted to 914000 M⁻¹ s⁻¹.

Another experiment concerns the target T3, hPRLR.mFc (soluble dimeric human PRLR). Nature of the experiment: SPR (Biacore), antibody capture, 37 C. The method, then:
as §1
As to B1, the Kd was found to be 0.0402 nM, the “T 1/2” value was 149 min, the koff came to 7.77e-05 s⁻¹ and the kon came out at 1.94e+06 M⁻¹ s⁻¹.

Regarding B2, the Kd was determined as 0.306 nM, the “T 1/2” value is 58 min, the koff came out at 0.000198 s⁻¹ and the kon came out at 646000 M⁻¹ s⁻¹.

On to B3, for which the affinity, expressed as Kd, was 0.369 nM; the “T 1/2” value was 56 min; the koff was 0.000205 s⁻¹; the kon was 554000 M⁻¹ s⁻¹.

With B4, the Kd stood at 0.09 nM, the “T 1/2” value came out at 105 min, the koff was 0.00011 s⁻¹ and the kon came to 1.22e+06 M⁻¹ s⁻¹.

Regarding B5, the Kd came out at 0.0691 nM, the “T 1/2” value is 93 min, the koff was found to be 0.000125 s⁻¹ and the kon was determined as 1.8e+06 M⁻¹ s⁻¹.

For a further experiment, the target named is T4, hPRLR.mmh (soluble monomeric human PRLR). Nature of the experiment: SPR (Biacore), antibody capture, 37 C. The method, then: as §1
B1: the Kd came out at 3.81 nM, the “T 1/2” value is 2 min, the koff worked out at 0.0052 s⁻¹ and the kon came out at 1.36e+06 M⁻¹ s⁻¹.

As to B2, binding was put at a Kd of 3.5 nM, the “T 1/2” value stood at 4 min, the off-rate (koff) amounted to 0.00329 s⁻¹ and the kon is 940000 M⁻¹ s⁻¹.

On to B3, for which binding was put at a Kd of 6.34 nM, the “T 1/2” value turned out to be 3 min, the koff came out at 0.00385 s⁻¹ and the kon amounted to 607000 M⁻¹ s⁻¹.

Turning to B4, binding was characterised by a dissociation constant (Kd) of 0.31 nM, the “T 1/2” value was found to be 34 min, the koff was 0.000336 s⁻¹ and the kon came out at 1.08e+06 M⁻¹ s⁻¹.

In the case of B5, the Kd was determined as 6.37 nM, the “T 1/2” value is 1 min, the koff stood at 0.00822 s⁻¹ and the kon was 1.29e+06 M⁻¹ s⁻¹.

A further experiment has as its target T1, human PRLR on cells (endogenous on …). The experiment is described as follows: FACS on T47D cells.
With B1, the “FACS Cell Binding (Fold Above Background)” value amounted to 34 fold.

B2: the “FACS Cell Binding (Fold Above Background)” value is 34 fold.

Turning to B3, the “FACS Cell Binding (Fold Above Background)” value was 34 fold.

As to B4, the “FACS Cell Binding (Fold Above Background)” value came out at 34 fold.

In the case of B5, the “FACS Cell Binding (Fold Above Background)” value was 38 fold.

The next experiment addresses T5, mouse PRLR construct with an HA tag on …. Nature of the experiment: FACS on HEK293/mPRLR cells.
On to B1, for which the “FACS Cell Binding (Fold Above Background)” value was 1 fold.

Take B2: the “FACS Cell Binding (Fold Above Background)” value stood at 1 fold.

As for B3, the “FACS Cell Binding (Fold Above Background)” value is 1 fold.

Turning to B4, the “FACS Cell Binding (Fold Above Background)” value was determined as 2 fold.

As to B5, the “FACS Cell Binding (Fold Above Background)” value was determined as 2 fold.

A further experiment addresses T1, human PRLR on cells (endogenous on …). The experiment is described as follows: cell-based or functional assay. This is another data set of the same source.
Turning to B1, the “Percent Blocking at 100 nM Antibody (STAT5-Luc reporter)” value (from here on “Percent Blocking at 100 nM Antibody”) is 0%.

For the molecule B2, the “IC50 of Blocking 5 nM PRL [M] (STAT5-Luc reporter, HEK293/hPRLR/STAT5-Luc cells)” value amounted to 2.06e-10 M and the “Percent Blocking at 100 nM Antibody” value is 100%.

For B3, the “IC50 of Blocking 5 nM PRL [M] (STAT5-Luc reporter, HEK293/hPRLR/STAT5-Luc cells)” value was 7.89e-09 M and the “Percent Blocking at 100 nM Antibody” value was 100%.

Take B4: the “IC50 of Blocking 5 nM PRL [M] (STAT5-Luc reporter, HEK293/hPRLR/STAT5-Luc cells)” value was found to be 6e-10 M and the “Percent Blocking at 100 nM Antibody” value was 100%.

Consider B5, for which the “Percent Blocking at 100 nM Antibody” value stood at 0%.
